Results as given in patent EP1506972A1 (Genentech Inc., dated 2005).
Residue numbers refer to the chain shown, from its start.

Assays:
Assay in all cases: competitive phage ELISA, soluble IGFBP-1 vs coated IGFBP-1
[1] = target: IGF-I Q40A (G1S-A70V background) displayed on phage (human; bacteriophage M13)
[2] = target: IGF-I G19A (G1S-A70V background) displayed on phage (human; bacteriophage M13)
[3] = target: IGF-I G22A (G1S-A70V background) displayed on phage (human; bacteriophage M13)
[4] = target: IGF-I T41A (G1S-A70V background) displayed on phage (human; bacteriophage M13)
[5] = target: Ala(1-3)-IGF-I, triple alanine mutant of the first three N-terminal amino acids, displayed on phage (human; bacteriophage M13)
[6] = target: IGF-I F23A (G1S-A70V background) displayed on phage (human; bacteriophage M13)
[7] = target: IGF-I Y24A (G1S-A70V background) displayed on phage (human; bacteriophage M13)
[8] = target: IGF-I I43A (G1S-A70V background) displayed on phage (human; bacteriophage M13)
[9] = target: IGF-I F25A (G1S-A70V background) displayed on phage (human; bacteriophage M13)
[10] = target: IGF-I S34A (G1S-A70V background) displayed on phage (human; bacteriophage M13)
[11] = target: IGF-I R37A (G1S-A70V background) displayed on phage (human; bacteriophage M13)
[12] = target: IGF-I V44A (G1S-A70V background) displayed on phage (human; bacteriophage M13)
[13] = target: IGF-I D20A (G1S-A70V background) displayed on phage (human; bacteriophage M13)
[14] = target: IGF-I R21A (G1S-A70V background) displayed on phage (human; bacteriophage M13)
[15] = target: IGF-I S35A (G1S-A70V background) displayed on phage (human; bacteriophage M13)
[16] = target: IGF-I N26A (G1S-A70V background) displayed on phage (human; bacteriophage M13)
[17] = target: IGF-I G42A (G1S-A70V background) displayed on phage (human; bacteriophage M13)
[18] = target: T1, wild-type IGF-I displayed on phage (double mutation restoring wild type) (human; bacteriophage M13, UniProt P69168 267-424)
T1 construct: range 249-406; also called IGF-I WT; WT

[19] = target: T2, IGF-I T4A (G1S-A70V background) displayed on phage (human; bacteriophage M13)
T2 construct: not shown: The display carrier: M13 gene III protein fragment (residues 249-406) and the junction to it
T2 chain: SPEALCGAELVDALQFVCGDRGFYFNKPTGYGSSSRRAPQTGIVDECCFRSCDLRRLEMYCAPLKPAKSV

[20] = target: T3, IGF-I M59A (G1S-A70V background) displayed on phage (human; bacteriophage M13)
T3 construct: not shown: M13 gene III fragment (residues 249-406), the display partner, and its junction to IGF-I
T3 chain: T2 chain with A4T, M59A

[21] = target: T4, IGF-I D53A (G1S-A70V background) displayed on phage (human; bacteriophage M13)
T4 construct: not shown: Display carrier: M13 gene III protein fragment (residues 249-406) and the junction to it
T4 chain: T2 chain with A4T, D53A

[22] = target: T5, IGF-I K27A (G1S-A70V background) displayed on phage (human; bacteriophage M13)
T5 construct: not shown: Display carrier: M13 gene III protein fragment (residues 249-406) and the junction to it
T5 chain: T2 chain with A4T, K27A

[23] = target: T6, IGF-I D12A (G1S-A70V background) displayed on phage (human; bacteriophage M13)
T6 construct: not shown: M13 gene III fragment (residues 249-406, display carrier) and the IGF-g3 junction
T6 chain: T2 chain with A4T, D12A

- IC50 [1]: 10.2 nM
- relative IC50 (IC50mut/IC50 G1S-A70V) [1]: 1.2 fold
- IC50 [2]: 11 nM
- relative IC50 (IC50mut/IC50 G1S-A70V) [2]: 1.3 fold
- IC50 [3]: 15.9 nM
- relative IC50 (IC50mut/IC50 G1S-A70V) [3]: 1.9 fold
- IC50 [4]: 13.7 nM
- relative IC50 (IC50mut/IC50 G1S-A70V) [4]: 1.7 fold
- IC50 [5]: 90.4 nM
- relative IC50 (IC50mut/IC50 G1S-A70V) [5]: 11 fold
- IC50 [6]: 10.9 nM
- relative IC50 (IC50mut/IC50 G1S-A70V) [6]: 1.3 fold
- IC50 [7]: 13.3 nM
- relative IC50 (IC50mut/IC50 G1S-A70V) [7]: 1.6 fold
- IC50 [8]: 31.3 nM
- relative IC50 (IC50mut/IC50 G1S-A70V) [8]: 3.8 fold
- IC50 [9]: 181 nM
- relative IC50 (IC50mut/IC50 G1S-A70V) [9]: 22.1 fold
- IC50 [10]: 9.5 nM
- relative IC50 (IC50mut/IC50 G1S-A70V) [10]: 1.2 fold
- IC50 [11]: 12.3 nM
- relative IC50 (IC50mut/IC50 G1S-A70V) [11]: 1.5 fold
- IC50 [12]: 18.8 nM
- relative IC50 (IC50mut/IC50 G1S-A70V) [12]: 2.3 fold
- IC50 [13]: 8.4 nM
- relative IC50 (IC50mut/IC50 G1S-A70V) [13]: 1 fold
- IC50 [14]: 7.1 nM
- relative IC50 (IC50mut/IC50 G1S-A70V) [14]: 0.9 fold
- IC50 [15]: 11.7 nM
- relative IC50 (IC50mut/IC50 G1S-A70V) [15]: 1.4 fold
- IC50 [16]: 9.1 nM
- relative IC50 (IC50mut/IC50 G1S-A70V) [16]: 1.1 fold
- IC50 [17]: 15.7 nM
- relative IC50 (IC50mut/IC50 G1S-A70V) [17]: 1.9 fold
- relative IC50 (IC50mut/IC50 G1S-A70V) [18]: 1 fold
- relative IC50 (IC50mut/IC50 G1S-A70V) [19]: 2.4 fold
- relative IC50 (IC50mut/IC50 G1S-A70V) [20]: 1.6 fold
- relative IC50 (IC50mut/IC50 G1S-A70V) [21]: 1.9 fold
- relative IC50 (IC50mut/IC50 G1S-A70V) [22]: 1.6 fold
- relative IC50 (IC50mut/IC50 G1S-A70V) [23]: 0.5 fold
B1: human IGFBP-1 (other, UniProt P08833 26-259, looked up)
chain: APWQCAPCSAEKLALCPPVSASCSEVTRSAGCGCCPMCALPLGAACGVATARCARGLSCRALPGEQQPLHALTRGQGACVQESDASAPHAAEAGSPESPESTEITEEELLDNFHLMAPSEEDHSILWDAISTYDGSKALHVTNIKKWKEPCRIELYRVVESLAKAQETSGEEISKFYLPNCNKNGFYHSRQCETSMDGEAGLCWCVYPWNGKRIPGSPEIRGDPNCQIYFNVQN
notes: Secreted recombinant protein
